In the Human Domainome abundance scans (Beltran et al. 2025):
± gives the uncertainty stated by the source.

B1: Peripheral plasma membrane protein CASK, residues 488 to 569; numbered along this chain, O14936 (parent)
chain: VRLVQFQKNTDEPMGITLKMNELNHCIVARIMHGGMIHRQGTLHVGDEIREINGISVANQTVEQLQKMLREMRGSITFKIVP

Variants of: B1
Assay: abundance fitness (aPCA) (normalised: wild type 0, dead -1); higher = more abundant; growth selection in yeast, the domain comes from the species named
Conditions: Homo sapiens

Point of comparison: K8E, abundance fitness -0.505 ± 0.036. Against it:
- E63C — higher, -0.08 ± 0.041
- E63S — higher, -0.035 ± 0.028
- E63L — higher, -0.092 ± 0.026
- L23T — higher, 0.044 ± 0.037
- F6R — lower, -0.673 ± 0.029
- R73D — higher, -0.002 ± 0.041
- M36V — higher, 0 ± 0.036
- M36D — higher, -0.044 ± 0.062
- M36C — higher, -0.07 ± 0.058
- M36S — higher, 0.049 ± 0.038
- R30K — higher, 0.069 ± 0.047
- M20C — higher, -0.19 ± 0.047
- M20F — higher, 0.026 ± 0.059
- M20D — within error, -0.489 ± 0.068
- S75Y — higher, -0.116 ± 0.048
- S75E — higher, -0.029 ± 0.03
- S75N — higher, -0.023 ± 0.047
- S75W — higher, -0.04 ± 0.031
- T61I — lower, -0.642 ± 0.071
- T61P — higher, -0.048 ± 0.03
- T61E — higher, -0.037 ± 0.037
- T61N — higher, 0.011 ± 0.038
- T61A — higher, -0.084 ± 0.024
- K19M — higher, -0.071 ± 0.033
- Q60R — higher, -0.007 ± 0.021
- E48W — higher, -0.059 ± 0.036
- S56A — higher, 0.014 ± 0.023
- S56I — higher, -0.155 ± 0.048
- G15W — higher, -0.374 ± 0.048
- D47I — within error, -0.694 ± 0.36
- D47T — lower, -0.788 ± 0.15
- E22P — higher, -0.03 ± 0.04
- E22F — higher, -0.277 ± 0.074
- I31W — lower, -0.847 ± 0.082
- I31Q — lower, -1.04 ± 0.13
- I31S — lower, -0.859 ± 0.075
- D11P — higher, -0.069 ± 0.043
- D11Q — higher, 0.021 ± 0.05
- D11V — higher, -0.072 ± 0.032
- D11A — higher, -0.027 ± 0.031
- N24S — higher, -0.045 ± 0.023
- V1S — higher, -0.095 ± 0.038
- V1I — higher, 0.085 ± 0.042
- V1K — higher, -0.046 ± 0.063
- V1W — higher, -0.122 ± 0.047
- V1G — higher, -0.037 ± 0.028
- L18A — lower, -0.761 ± 0.065
- L18P — lower, -1.2 ± 0.22
- L18E — lower, -0.909 ± 0.096
- R70D — higher, 0.038 ± 0.035
- R70T — higher, -0.02 ± 0.03
- L69P — lower, -0.944 ± 0.086
- C26I — higher, 0.032 ± 0.05
- C26S — lower, -0.732 ± 0.043
- C26E — lower, -0.909 ± 0.059
- V45P — higher, -0.059 ± 0.072
- V45T — higher, 0.022 ± 0.075
- V45N — higher, -0.292 ± 0.12
- N9C — higher, -0.092 ± 0.032
- N9R — higher, -0.031 ± 0.021
- I80Y — higher, -0.188 ± 0.06
- L43G — lower, -0.985 ± 0.043
- L43D — lower, -1.04 ± 0.11
- L43F — higher, 0.052 ± 0.055
- L43K — lower, -0.99 ± 0.09
- L43M — higher, -0.021 ± 0.03
- L43C — higher, -0.308 ± 0.038
- Q66A — higher, -0.04 ± 0.023
- Q66H — higher, -0.043 ± 0.039
- I27W — higher, -0.187 ± 0.027
- I27P — lower, -0.883 ± 0.067
- G34K — higher, -0.177 ± 0.064
- P82N — higher, -0.048 ± 0.084
- P82S — higher, -0.021 ± 0.035
- P82Q — higher, 0.02 ± 0.073
- G41L — higher, -0.424 ± 0.029
- G41S — higher, -0.098 ± 0.025
- I52N — higher, -0.199 ± 0.22
- H25R — higher, -0.016 ± 0.021
- H25W — higher, -0.32 ± 0.031
- K8W — higher, -0.136 ± 0.026
- K8A — higher, -0.071 ± 0.025
- K8I — higher, 0.002 ± 0.045
- V81L — higher, 0.005 ± 0.027
- V81N — higher, -0.118 ± 0.046
- V81W — higher, -0.102 ± 0.046
- I37E — higher, -0.378 ± 0.032
- I37L — higher, -0.103 ± 0.025
- I37A — higher, 0.019 ± 0.025
- I37C — higher, -0.024 ± 0.034
- M72C — higher, 0.005 ± 0.03
- M72I — higher, 0.036 ± 0.042
- M72N — higher, -0.114 ± 0.046
- K67W — higher, -0.119 ± 0.032
- K67Q — higher, -0.054 ± 0.042
- E71H — higher, -0.002 ± 0.048
- G35P — within error, -0.549 ± 0.048
- G35A — higher, -0.098 ± 0.026
- G35V — within error, -0.485 ± 0.031
- G35T — higher, -0.013 ± 0.033
- G35N — higher, -0.28 ± 0.068
- G35D — higher, -0.236 ± 0.043
- R39M — higher, -0.135 ± 0.033
- R39L — higher, -0.138 ± 0.026
- R39C — higher, -0.156 ± 0.055
- V28W — lower, -0.931 ± 0.06
- V28N — lower, -1.01 ± 0.25
- K79Q — higher, -0.016 ± 0.037
- K79G — higher, -0.044 ± 0.045
- N59S — higher, -0.045 ± 0.029
- N59I — higher, -0.324 ± 0.051
- N59Q — higher, -0.09 ± 0.04
- T10A — higher, -0.075 ± 0.028
- T10W — higher, -0.086 ± 0.031
- G54W — within error, -0.549 ± 0.054
- H38P — higher, -0.103 ± 0.034
- H38S — higher, -0.052 ± 0.028
- M32D — higher, 0.051 ± 0.055
- M32W — higher, -0.045 ± 0.045
- M32E — higher, 0.04 ± 0.037
- M32Y — higher, -0.086 ± 0.072
- P13H — higher, -0.054 ± 0.051
- P13M — higher, -0.1 ± 0.098
- T42M — higher, 0.01 ± 0.032
- V62H — higher, -0.131 ± 0.047
- I49M — higher, -0.264 ± 0.097
- I49K — lower, -0.823 ± 0.16
- I49L — higher, -0.089 ± 0.04
- Q7R — higher, -0.025 ± 0.022
- Q7T — higher, 0.041 ± 0.03
- Q7Y — higher, 0.021 ± 0.043
- R50N — higher, -0.054 ± 0.092
- R50T — higher, -0.028 ± 0.043
- L3P — higher, -0.322 ± 0.044
- L3K — higher, -0.026 ± 0.034
- L3D — higher, -0.141 ± 0.041
- L3Q — higher, 0.018 ± 0.03
- V57I — higher, 0.007 ± 0.063
- V57A — higher, -0.061 ± 0.021
- H44L — higher, -0.142 ± 0.025
- H44S — higher, -0.007 ± 0.023
- A29N — higher, -0.201 ± 0.087
- A29M — higher, -0.057 ± 0.047
- Q64D — higher, 0.007 ± 0.039
- Q64Y — higher, 0.005 ± 0.038
- Q64G — higher, -0.064 ± 0.022
- E12L — higher, -0.131 ± 0.033
- L65Q — higher, -0.33 ± 0.039
- L65P — lower, -1.02 ± 0.11
- L65G — lower, -0.817 ± 0.047
- Q40E — higher, 0.018 ± 0.024
- Q5D — higher, -0.038 ± 0.034
- T17R — higher, -0.031 ± 0.021
- F78D — lower, -1.22 ± 0.36
- G46T — lower, -0.992 ± 0.2
- G46R — lower, -0.669 ± 0.041
- T77F — higher, -0.019 ± 0.059
- T77V — higher, -0.103 ± 0.046
- A58N — higher, -0.076 ± 0.053
- A58E — higher, 0.017 ± 0.027
- I55D — higher, -0.035 ± 0.039
- M14C — higher, -0.127 ± 0.046
- I76R — lower, -1.06 ± 0.065
- I76A — higher, -0.308 ± 0.033
- I76P — lower, -0.647 ± 0.094
- I76H — within error, -0.544 ± 0.1
